The values below come from PMC11806106.

Test [1] addresses MOR FRET sensor (rat MOR with sYFP2 inserted after G267, truncated after T370, mTurquoise2 at the C-terminus) (rat) (UniProt P33535).
For test [2] the target is unchanged. The source holds these as a separate data set.

T370 sequence (P33535 1-370): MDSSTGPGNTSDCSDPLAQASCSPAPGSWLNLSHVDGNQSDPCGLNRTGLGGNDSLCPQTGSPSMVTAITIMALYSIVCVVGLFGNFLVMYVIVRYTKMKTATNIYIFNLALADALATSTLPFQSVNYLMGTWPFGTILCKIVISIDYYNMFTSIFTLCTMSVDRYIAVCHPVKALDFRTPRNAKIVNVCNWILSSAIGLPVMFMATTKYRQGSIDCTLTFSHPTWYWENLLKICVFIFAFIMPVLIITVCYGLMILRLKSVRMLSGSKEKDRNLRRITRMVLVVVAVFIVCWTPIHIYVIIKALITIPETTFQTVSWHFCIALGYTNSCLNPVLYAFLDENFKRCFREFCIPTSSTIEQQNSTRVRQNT

In the case of DAMGO (peptide), the EC50 of the agonist-induced change of the FRET emission ratio of the MOR FRET conformation sensor (concentration-response, 96-well plate reader) in test [1] was found to be 430 nM. In addition, in test [2], the half-time of deactivation of the MOR FRET sensor after washout of 100 µM agonist (single-cell FRET) is below 10 s; the on-rate Kon, calculated from the Koff of sensor deactivation and the EC50 (single-cell FRET, 100 µM agonist) is 167000 M⁻¹ s⁻¹.
Met-enkephalin (peptide) showed a half-time of deactivation of the MOR FRET sensor after washout of 100 µM agonist (single-cell FRET) in test [2] below 10 s.
